We go through three molecules from paper PMC5753033 (2017).

The target of experiment [1] is WAVE1 PRD[C] (human, UniProt Q92558 277-488, C296 | C407, Texas Red maleimide (KCK variants) or Alexa 546 maleimide (C variants) on the introduced cysteine). In words: AUC.
The target in experiment [2] is WAVE1 PRD [Null] (human, UniProt Q92558 277-488, C296 | C407, Texas Red maleimide (KCK variants) or Alexa 546 maleimide (C variants) on the introduced cysteine). Kind of experiment: AUC.
Experiment [3] has as its target WAVE1 PRD[F] (human, UniProt Q92558 277-488, C296 | C407, Texas Red maleimide (KCK variants) or Alexa 546 maleimide (C variants) on the introduced cysteine). In words: AUC.
Experiment [4] has as its target WAVE1 PRD[A] (human, UniProt Q92558 277-488, C296 | C407, Texas Red maleimide (KCK variants) or Alexa 546 maleimide (C variants) on the introduced cysteine). Kind of experiment: AUC.
For experiment [5], the target named is WAVE1 PRD[E] (human, UniProt Q92558 277-488, C296 | C407, Texas Red maleimide (KCK variants) or Alexa 546 maleimide (C variants) on the introduced cysteine). In words: AUC.
In experiment [6] the target is WAVE1 PRD[D] (human, UniProt Q92558 277-488, C296 | C407, Texas Red maleimide (KCK variants) or Alexa 546 maleimide (C variants) on the introduced cysteine). In words: AUC.
In experiment [7] the target is T1, WAVE1 PRD[B] (human, UniProt Q92558 277-488, C296 | C407, Texas Red maleimide (KCK variants) or Alexa 546 maleimide (C variants) on the introduced cysteine). In words: AUC.
The target in experiment [8] is T1, WAVE1 PRD[B]. Kind of experiment: AUC; 2:1 binding model, Kd1 (fit).
For experiment [9], the target named is Native, cytoplasmic actin from Acanthamoeba castellanii, monomeric (Acanthamoeba castellanii). Kind of experiment: FP.

T1 sequence (Q92558 other isoform, or with tags, fused parts or gaps, stated change not applied): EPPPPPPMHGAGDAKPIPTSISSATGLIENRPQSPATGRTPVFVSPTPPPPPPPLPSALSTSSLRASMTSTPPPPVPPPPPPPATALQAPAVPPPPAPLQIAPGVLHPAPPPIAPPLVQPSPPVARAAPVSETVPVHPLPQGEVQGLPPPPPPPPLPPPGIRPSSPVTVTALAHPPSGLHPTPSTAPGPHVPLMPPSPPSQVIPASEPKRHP
Sequence of WAVE1 PRD [Null] (Q92558 other isoform, or with tags, fused parts or gaps, change not shown): as the sequence (Q92558 other isoform, or with tags, fused parts or gaps, stated change not applied) above
Sequence of WAVE1 PRD[A] (Q92558 other isoform, or with tags, fused parts or gaps, change not shown): as the sequence (Q92558 other isoform, or with tags, fused parts or gaps, stated change not applied) above
Sequence of WAVE1 PRD[E] (Q92558 other isoform, or with tags, fused parts or gaps, change not shown): as the sequence (Q92558 other isoform, or with tags, fused parts or gaps, stated change not applied) above
Sequence of WAVE1 PRD[D] (Q92558 other isoform, or with tags, fused parts or gaps, change not shown): as the sequence (Q92558 other isoform, or with tags, fused parts or gaps, stated change not applied) above
Sequence of WAVE1 PRD[C] (Q92558 other isoform, or with tags, fused parts or gaps, change not shown): as the sequence (Q92558 other isoform, or with tags, fused parts or gaps, stated change not applied) above
Sequence of WAVE1 PRD[F] (Q92558 other isoform, or with tags, fused parts or gaps, change not shown): as the sequence (Q92558 other isoform, or with tags, fused parts or gaps, stated change not applied) above

B1: Mouse profilin 2a (natural protein)
chain: MAGWQSYVDNLMCDGCCQEAAIVGYCDAKYVWAATAGGVFQSITPVEIDMIVGKDREGFFTNGLTLGAKKCSVIRDSLYVDGDCTMDIRTKSQGGEPTYNVAVGRAGRVLVFVMGKEGVHGGGLNKKAYSMAKYLRDSGF
For the molecule B1, the Kd in [1] turned out to be 12 µM; in [2] it was 138 µM; in [3], 4 µM; in experiment [4], 51 µM; in experiment [5], 182 µM; in experiment [6], 145 µM. Further, the Kd in [7] was 2 µM; in [8], 2.07 µM.

B2: WAVE1 WCA, unlabeled, soluble (domain or fragment)
chain: STLPVISDARSVLLEAIRKGIQLRKVEEQREQEAKHERIENDVATILSRRIAVEYSDSEDDSEFDEVDWLE
In experiment [9], B2 gave a Kd of 0.068 µM.

B3: Alexa488-labeled WAVE1 WCA (domain or fragment)
chain: SCLPVISDARSVLLEAIRKGIQLRKVEEQREQEAKHERIENDVATILSRRIAVEYSDSEDDSEFDEVDWLE
modifications: Alexa488-maleimide on Cys490
As for B3, the Kd in experiment [9] came out at 0.029 µM.
